T1: RAGE on bovine aortic endothelial cells (BAEC RAGE) (bovine, UniProt Q28173 23-416)
T1 construct: whole, on cells; The target is endogenous RAGE on confluent BAEC monolayers; also called BAECs; endothelial (EC) RAGE
T1 sequence (looked up): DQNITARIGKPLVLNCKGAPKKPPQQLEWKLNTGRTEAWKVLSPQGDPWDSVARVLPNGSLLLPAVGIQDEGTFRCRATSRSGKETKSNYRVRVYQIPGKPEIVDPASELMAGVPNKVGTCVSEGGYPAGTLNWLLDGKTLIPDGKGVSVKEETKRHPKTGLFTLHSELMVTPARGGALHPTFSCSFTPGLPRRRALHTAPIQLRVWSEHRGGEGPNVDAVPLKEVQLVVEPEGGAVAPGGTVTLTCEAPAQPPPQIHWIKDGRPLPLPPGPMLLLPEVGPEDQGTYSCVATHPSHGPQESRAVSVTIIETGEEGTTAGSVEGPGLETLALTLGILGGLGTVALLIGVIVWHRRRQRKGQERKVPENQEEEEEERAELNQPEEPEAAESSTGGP

B1: EN-RAGE (Extracellular Novel RAGE binding protein), recombinant bovine, expressed in Sf9 cells (ligand)
chain: TKLEDHLEGIINIFHQYSVRVGHFDTLNKRELKQLITKELPKTLQNTKDQPTIDKIFQDLDADKDGAVSFEEFVVLVSRVLKTAHIDIHK
notes: Recombinant protein made from a bovine lung cDNA in baculovirus/Sf9; In the cell assays it was unlabelled; also called radiolabelled EN-RAGE
B2: purified S100B from human brain (Calbiochem-Novabiochem) (ligand, UniProt P04271 2-92, looked up)
chain: SELEKAMVALIDVFHQYSGREGDKHKLKKSELKELINNELSHFLEEIKEQEVVDKVMETLDNDGDGECDFQEFMAFVAMVTTACHEFFEHE

Assays:
[1] = biological target: cellular RAGE on human cells (HUVEC, Molt-4, PBMC, Jurkat) (human, UniProt Q15109 23-404); assay: cell-based or functional assay
[2] = biological target: T2, human soluble RAGE (sRAGE), prepared from a baculovirus expression system (human, UniProt Q15109 23-342); assay: radioligand binding: 125I-EN-RAGE on human sRAGE adsorbed to plastic wells, with or without 50-fold unlabelled EN-RAGE
T2 construct: extracellular domain; Murine sRAGE was used only in the in vivo studies; also called purified RAGE; immobilized RAGE
Procedure: (§1) Where indicated, radiolabelled EN-RAGE (100 nM) was incubated with the indicated amount of excess sRAGE two hours prior to binding assay, or wells were preincubated for two hours with the indicated concentration of rabbit nonimmune IgG, or polyclonal monospecific rabbit anti-EN-RAGE IgG or anti-RAGE: IgG prior to binding assay and results reported as % maximal specific binding ±SD of the mean. These experiments were performed at least five times with analogous results.
(§2) Radioligand binding assays were performed in 96-well dishes to which had been adsorbed either purified human RAGE (5 μg/well) or bovine aortic endothelial cells. In the former case, after adsorption of human soluble RAGE to the plastic dish in carbonate/bicarbonate buffer (pH 9.3) overnight, wells were then washed with PBS containing Tween 20 (0.05%). Unoccupied binding sites on the plastic wells were blocked by incubation with PBS containing calcium/magnesium and bovine serum albumin (1%) for two hours at 37° C. After aspiration of the wells, a radioligand binding assay was performed in the presence of the indicated concentration of radiolabelled EN-RAGE ± an 50-fold molar excess of unlabelled EN-RAGE in PBS containing calcium/magnesium and BSA, 0.2%, for 3 hrs at 37° C. […] Solution was then aspirated from the wells and counted in a gamma counter (LKB, Gaithersburg, Md.). […]

[3] = biological target: T1, RAGE on bovine aortic endothelial cells …; assay: binding to endothelial cell RAGE in culture wells
Procedure: as §1, §2

[4] = biological target: T2, human soluble RAGE (sRAGE), prepared …; assay: binding to immobilized RAGE in culture wells
Procedure: as §1, with “(Panel C–D) EN-RAGE binds purified RAGE (C) and BAECs (D): In C, human soluble RAGE was immobilized onto the wells of plastic dishes and in D, confluent BAECs were cultured onto tissue culture-treated wells. […] Where” for “Where”
Radioligand binding assays were performed in 96-well dishes to which had been adsorbed either purified human RAGE (5 μg/well) or bovine aortic endothelial cells. In the former case, after adsorption of human soluble RAGE to the plastic dish in carbonate/bicarbonate buffer (pH 9.3) overnight, wells were then washed with PBS containing Tween 20 (0.05%). Unoccupied binding sites on the plastic wells were blocked by incubation with PBS containing calcium/magnesium and bovine serum albumin (1%) for two hours at 37° C. […] Solution was then aspirated from the wells and counted in a gamma counter (LKB, Gaithersburg, Md.).

[5] = biological target: T3, RAGE on macrophage-like BV2 cells (macrophage (MP) RAGE) (UniProt Q62151 23-402, limits assumed); assay: binding to macrophage RAGE in culture wells
T3 construct: whole, on cells; also called BV-2 macrophages

[6] = biological target: T1, RAGE on bovine aortic endothelial cells …; assay: radioligand binding: 125I-EN-RAGE on confluent bovine aortic endothelial cells
Procedure: as §1, §2

Chain of cellular RAGE on human cells (HUVEC, Molt-4, PBMC, Jurkat) (Q15109 23-404): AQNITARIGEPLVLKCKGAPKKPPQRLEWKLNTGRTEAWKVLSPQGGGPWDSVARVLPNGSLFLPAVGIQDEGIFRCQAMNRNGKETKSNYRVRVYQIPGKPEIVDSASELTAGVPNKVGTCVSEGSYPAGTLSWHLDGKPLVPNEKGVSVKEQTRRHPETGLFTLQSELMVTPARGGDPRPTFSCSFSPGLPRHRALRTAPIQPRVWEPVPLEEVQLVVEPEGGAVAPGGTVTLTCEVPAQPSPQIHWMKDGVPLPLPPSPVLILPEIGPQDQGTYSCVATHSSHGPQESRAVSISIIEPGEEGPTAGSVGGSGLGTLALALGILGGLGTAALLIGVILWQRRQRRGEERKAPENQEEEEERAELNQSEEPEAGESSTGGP
T2 sequence (Q15109 23-342): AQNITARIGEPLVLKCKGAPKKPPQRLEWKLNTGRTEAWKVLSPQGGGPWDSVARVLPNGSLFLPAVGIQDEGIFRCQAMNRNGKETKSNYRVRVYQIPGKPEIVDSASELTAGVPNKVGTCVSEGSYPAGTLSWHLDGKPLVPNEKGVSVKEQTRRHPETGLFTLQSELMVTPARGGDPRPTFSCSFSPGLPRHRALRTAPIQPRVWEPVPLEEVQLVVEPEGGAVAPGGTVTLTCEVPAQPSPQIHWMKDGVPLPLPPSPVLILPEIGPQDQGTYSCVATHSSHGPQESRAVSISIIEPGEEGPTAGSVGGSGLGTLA
T3 sequence (Q62151 23-402 limits assumed): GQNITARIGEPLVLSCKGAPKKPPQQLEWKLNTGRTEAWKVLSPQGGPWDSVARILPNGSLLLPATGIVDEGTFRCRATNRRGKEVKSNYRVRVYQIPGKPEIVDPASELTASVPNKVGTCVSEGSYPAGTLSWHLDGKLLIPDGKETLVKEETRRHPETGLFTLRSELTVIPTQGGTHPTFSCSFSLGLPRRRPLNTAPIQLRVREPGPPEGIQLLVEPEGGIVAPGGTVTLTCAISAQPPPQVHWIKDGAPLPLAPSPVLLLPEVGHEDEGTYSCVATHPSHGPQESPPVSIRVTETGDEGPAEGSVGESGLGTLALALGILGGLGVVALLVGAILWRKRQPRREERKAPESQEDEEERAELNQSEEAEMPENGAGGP

Row | Binder | adhesion of Molt-4 cells to cultured ECs [1] [fold] | expression of cell-surface VCAM-1 on cultured ECs [1] [fold] | nuclear NF-kB in HUVEC (EMSA, densitometry) [1] [fold] | Kd [2] [nM] | Kd [3] [nM] | Kd [4] [nM] | Kd [5] [nM] | Kd [6] [nM] | nuclear translocation of NF-kB in HUVEC (EMSA) [1] [fold]
1 | B1 | 7 | 4.3 | ~5 | ~91 | ~75 | ~75 | ~75 | ~90.3 | –
2 | B2 | – | – | – | – | – | – | – | – | ~13.9

From patent publication US6670136 (TRUSTEES OF COLUMBIA UNIVERSITY IN THE CITY OF NEW YORK, dated 2003)
